In US20040235749A1 (HOSPITAL SAINTE JUSTINE, published 2004):
Non-standard residues stand in square brackets, D forms with d. No end group written: not given here. dCha = N[C@H](CC1CCCCC1)C(=O)O

B1: PCP-13.21 (peptide)
peptide: [dI][dL]G[dH][dR][dD][dY][dK]-NH2
modifications: N-terminus assumed
SMILES: CC[C@@H](C)[C@@H](N)C(=O)N[C@H](CC(C)C)C(=O)NCC(=O)N[C@H](Cc1c[nH]cn1)C(=O)N[C@H](CCCNC(=N)N)C(=O)N[C@H](CC(=O)O)C(=O)N[C@H](Cc1ccc(O)cc1)C(=O)N[C@H](CCCCN)C(N)=O
B2: PCP-13.20 (peptide)
peptide: [dI][dL]G[dH][dR][dD][dY]-NH2
modifications: N-terminus assumed
SMILES: CC[C@@H](C)[C@@H](N)C(=O)N[C@H](CC(C)C)C(=O)NCC(=O)N[C@H](Cc1c[nH]cn1)C(=O)N[C@H](CCCNC(=N)N)C(=O)N[C@H](CC(=O)O)C(=O)N[C@H](Cc1ccc(O)cc1)C(N)=O

What follows are binders tested against PAF receptor in porcine retinal microvessels (pig, UniProt Q9XSD4 1-342) (assay: cell-based or functional assay).
Chain of PAF receptor in porcine retinal microvessels (Q9XSD4 whole entry): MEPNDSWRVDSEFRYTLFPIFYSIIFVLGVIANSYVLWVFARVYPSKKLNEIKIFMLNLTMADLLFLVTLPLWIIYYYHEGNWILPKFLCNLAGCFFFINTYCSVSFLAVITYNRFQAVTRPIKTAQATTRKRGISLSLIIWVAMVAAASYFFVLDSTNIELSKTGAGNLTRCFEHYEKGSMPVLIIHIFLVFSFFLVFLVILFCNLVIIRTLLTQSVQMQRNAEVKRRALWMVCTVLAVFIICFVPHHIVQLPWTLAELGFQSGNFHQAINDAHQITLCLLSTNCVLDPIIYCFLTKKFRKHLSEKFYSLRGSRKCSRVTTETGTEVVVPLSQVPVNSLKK

Binder	IC50, C-PAF induced retinal vasomotor responses, porcine eyecup
[dL][dV][dP][dV][dS]G[dK][dE][dY] [SEQ ID NO:85]	134 nM

Each binder was assayed against Urotensin receptor (GPR14) in porcine tissue (retinal microvessels, aortic strips) (pig) (assay: cell-based or functional assay).

Binder	IC50, U-II (1 µM) mediated contractility of retinal microvessels
[dV][dI][dR][dA][dT][dR][dP][dA][dL] [SEQ ID NO:79]	115 nM

Each binder was assayed against FP receptor in porcine tissue (retinal microvessels, uterine myometrium) (pig) (assay: cell-based or functional assay).

Binder	% Inhibition of Maximal Response, 100 µM peptide, 10^-7 M PGF2α, porcine eyecup	% Vasomotor Response (of maximum constriction), 100 µM peptide, 10^-7 M PGF2α, porcine eyecup
WEDRFYLL [PCP-10]	80%	20%
[dI][dL]G[dH][dR][dD][dY][dK] [PCP-13]	80%	20%
[dY][dQ][dD][dR][dF][dY][dL][dL] [PCP-14]	64%	36%
ILGHRDYK [PCP-8]	50%	50%
[dI][dL]G[dCha][dR][dD][dY][dK] [PCP-13.24]	93.8%	6.2%
[dI][dL][dA][dH][dR][dD][dY][dK] [PCP-13.7]	76.2%	23.8%
[dI][dL]G[dW][dR][dD][dY][dK] [PCP-13.22]	83.4%	16.6%
[dI][dL]G[dH][dK][dD][dY][dK] [PCP-13.13]	63.1%	36.9%
[dS][dN][dV][dL][dC][dS][dI][dF] [PCP-15]	88.1%	11.9%
B1	53.8%	46.2%
[dI][dL]G[dF][dR][dD][dY][dK] [PCP-13.11]	87%	13%
B2	50.4%	49.6%
[dI][dL]A[dH][dR][dD][dY][dK] [PCP-13.8]	53.2%	46.8%
[dI][dL]G[dH][dQ][dD][dY][dK] [PCP-13.18]	70%	30%
